Source: patent US20220144956A1 (Xencor, published 2022)
Positions count from the first letter of the chain named. Names may count otherwise. Values belong to the binder of their own block, whether it stands above or below them.

Tests used:
[1] = biological target: T1, human CD5 on human PBMCs / T cells (human, UniProt P06127 25-495); experiment: cell binding on unstimulated human PBMCs (FIG. 67)
T1 construct: whole, on cells
T1 sequence (looked up): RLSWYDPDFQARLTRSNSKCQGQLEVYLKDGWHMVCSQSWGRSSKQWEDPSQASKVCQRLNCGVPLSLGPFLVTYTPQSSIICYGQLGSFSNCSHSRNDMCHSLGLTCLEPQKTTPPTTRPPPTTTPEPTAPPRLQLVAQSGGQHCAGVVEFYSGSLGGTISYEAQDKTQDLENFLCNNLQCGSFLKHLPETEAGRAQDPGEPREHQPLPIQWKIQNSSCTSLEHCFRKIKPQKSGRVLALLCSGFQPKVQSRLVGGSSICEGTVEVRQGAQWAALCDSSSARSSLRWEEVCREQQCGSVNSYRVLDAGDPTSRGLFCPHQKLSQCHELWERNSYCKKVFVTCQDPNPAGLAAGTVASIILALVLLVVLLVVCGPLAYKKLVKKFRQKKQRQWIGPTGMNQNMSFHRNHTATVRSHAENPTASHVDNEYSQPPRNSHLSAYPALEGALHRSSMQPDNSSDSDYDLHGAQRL

[2] = biological target: T2, human TGFßRII on human PBMCs / T cells (human, UniProt P37173 23-567); experiment: flow cytometry, Alexa647-labeled mAb on anti-CD3 activated human PBMCs
T2 construct: whole, on cells; also called cell-surface TGFßRII; TGFßR2

[3] = biological target: T3, His-tagged human CD5 antigen (human, UniProt P06127 25-372, limits assumed); experiment: method not stated; the filing prints 'TGFßRII' but the sentence is about restoring the CD5 affinity of Cd5-B VH variants, so the target is taken as CD5
T3 construct: not shown: His tag
T3 sequence (looked up): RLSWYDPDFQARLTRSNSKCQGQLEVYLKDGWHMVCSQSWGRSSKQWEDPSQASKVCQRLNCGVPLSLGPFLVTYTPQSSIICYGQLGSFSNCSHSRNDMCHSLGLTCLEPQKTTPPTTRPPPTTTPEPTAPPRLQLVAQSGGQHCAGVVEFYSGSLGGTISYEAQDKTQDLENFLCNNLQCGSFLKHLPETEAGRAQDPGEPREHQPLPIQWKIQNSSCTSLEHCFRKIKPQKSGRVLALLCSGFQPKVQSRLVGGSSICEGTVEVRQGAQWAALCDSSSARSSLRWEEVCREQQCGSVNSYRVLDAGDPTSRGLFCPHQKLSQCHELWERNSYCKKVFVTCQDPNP

[4] = biological target: T4, His-tagged cynomolgus CD5 antigen (cynomolgus monkey); experiment: as above
T4 construct: also called cyno CD5

[5] = biological target: T1, human CD5 on human PBMCs / T cells; experiment: flow cytometry on unstimulated human PBMCs, anti-human Fc Alexa647 secondary
Experimental: Next, cell binding of the bispecific antibodies were investigated. Unstimulated PBMCs were incubated with the indicated dose of bispecific antibodies for 1 hour on ice and washed. Next, the PBMCs were stained with goat anti-human Fc secondary antibody conjugated to Alexa647 (to assess binding of the bispecific antibodies) and antibodies against cell surface antigens (to define T cell populations) for 40 minutes on ice. Finally, the cells were analyzed by flow cytometry.

[6] = biological target: T3, His-tagged human CD5 antigen; experiment: worded comparison of affinity (Octet KD values in FIG. 68)
From the text: In particular, His-tagged human and cynomolgus CD5 antigen were captured using HIS1K sensors and dipped into multiple concentrations of the bispecific antibodies.

T2 sequence (P37173 23-567): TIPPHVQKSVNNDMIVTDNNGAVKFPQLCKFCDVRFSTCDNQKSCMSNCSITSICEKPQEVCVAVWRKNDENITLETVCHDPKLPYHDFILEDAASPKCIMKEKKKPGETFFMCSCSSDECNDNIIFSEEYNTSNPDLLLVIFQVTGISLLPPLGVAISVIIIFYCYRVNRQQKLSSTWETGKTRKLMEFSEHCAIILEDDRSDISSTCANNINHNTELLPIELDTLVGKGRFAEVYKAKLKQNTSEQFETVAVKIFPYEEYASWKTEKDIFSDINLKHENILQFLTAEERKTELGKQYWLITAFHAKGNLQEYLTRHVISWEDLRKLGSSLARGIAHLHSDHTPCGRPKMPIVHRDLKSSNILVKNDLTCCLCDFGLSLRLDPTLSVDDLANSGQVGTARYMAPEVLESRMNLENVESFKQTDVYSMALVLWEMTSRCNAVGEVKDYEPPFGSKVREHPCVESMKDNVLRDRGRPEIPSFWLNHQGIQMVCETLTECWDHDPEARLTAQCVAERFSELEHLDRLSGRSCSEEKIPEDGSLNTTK

B1: XENP35401 (antibody, human IgG1, kappa, V domains shown)
VH: EVQLVESGGGVVQPGRSLRLSCTFSGFSLSTSGMGVGWIRQAPGKGLEWVAHIWWDDDVYYNPSLKSRLTITKDASTDTVYMELSSLRSEDTAVYYCVRRRATGTGFDYWGQGTLVTVSS
VL: NIVMTQSPSSLSASVGDRVTITCQASQDVGTAVAWYQQKPDQSPKLLIYWTSTRHTGVPDRFTGSGSGTDFTLTISSLQPEDIATYFCHQYNSYNTFGSGTKLEIKR
notes: IgG1 backbone with E233P/L234V/L235A/G236del/S267K ablation variant; also called bivalent anti-CD5 mAb based on clone 5D7; 5D7; copies: 2 + 2
binding result [1]: binds

B2: XENP33038 (antibody, human IgG1, kappa, V domains shown)
VH: EVQLVESGGGLVKPGGSLRLSCAASGFTFSSFSMNWVRQAPGKGLEWVSSISSSSSYIYYTDSVKGRFTISRDNAKNSLYLQMNSLRAEDTAVYYCARGYWGFDYWGQGTLVTVSS
VL: DIQMTQSPSSLSASVGDRVTITCRASQGIRNDLGWYQQKPGKAPKRLIYAASSLQSGVPSRFSGSASGTEFTLTISSLQPEDFATYYCLQHNSNPLTFGGGTKVEIKR
modifications: Antibody labeled with Alexa647 in the assay; attachment sites not stated.
notes: labeled with Alexa647; also called illustrative anti-TGFßRII mAb XENP33038; copies: 2 + 2
binding result [2]: binds

B3: Cd5-B H2L1 (further humanized variant of Cd5-B) (antibody, V domains shown)
VH: QVQLVQSGAEVKKPGASVKVSCKASGYSFTSYWMNWVRQAPGQGLEWMGMIHPSDSETRYNQKFQGRVTMTVDKSTSTAYMELSSLRSEDTAVYYCARWGDHDDAMDFWGQGTMVTVSS
VL: DIVLTQSPSSLSASVGDRVTITCRPSENIYGYFAWYQQKPGKSPKLLVYNAKTLAEGVPSRFSGSGSGTDFTLTISSLQPEDFATYYCQHHYGTPFTFGPGTKVEIK
Kd [3]: 2 nM
Kd [4]: 0.3 nM

B4: Cd5-B H1.23_L1 (further humanized variant of Cd5-B) (antibody, V domains shown)
VH: EVQLVQSGAEVKKPGESLKISCKASGYSFTSYWMNWVRQMPGKGLEWMGMIYPSDSETRYNQSFQGQVTISVDKSISTAYLQWSSLKASDTAMYYCARWGDHDDAMDFWGQGTMVTVSS
VL: B3 VL
Kd [3]: 4 nM
Kd [4]: 3 nM

B5: Cd5-B H1.36_L1 (further humanized variant of Cd5-B) (antibody, V domains shown)
VH: B4 VH with Y52H, S63K
VL: B3 VL
Kd [3]: 4 nM
Kd [4]: 2 nM

B6: XENP35399 (bispecific antibody, human IgG1, kappa)
heavy: EVQLVESGGGVVQPGRSLRLSCTFSGFSLSTSGMGVGWIRQAPGKGLEWVAHIWWDDDVYYNPSLKSRLTITKDASTDTVYMELSSLRSEDTAVYYCVRRRATGTGFDYWGQGTLVTVSSASTKGPSVFPLAPSSKSTSGGTAALGCLVKDYFPEPVTVSWNSGALTSGVHTFPAVLQSSGLYSLSSVVTVPSSSLGTQTYICNVNHKPSDTKVDKKVEPKSCDKTHTCPPCPAPPVAGPSVFLFPPKPKDTLMISRTPEVTCVVVDVKHEDPEVKFNWYVDGVEVHNAKTKPREEEYNSTYRVVSVLTVLHQDWLNGKEYKCKVSNKALPAPIEKTISKAKGQPREPQVYTLPPSREEMTKNQVSLTCDVSGFYPSDIAVEWESDGQPENNYKTTPPVLDSDGSFFLYSKLTVDKSRWEQGDVFSCSVMHEALHNHYTQKSLSLSPGK
scFv-Fc: QLQVQESGPGLVKPSETLSLTCTVSGGSISNSYFSWGWIRQPPGKGLEWIGSFYYGEKTYYNPSLKSRATISIDTSKSQFSLKLSSVTAADTAVYYCPRGPTVIRGVIDSWGQGTLVTVSSGKPGSGKPGSGKPGSGKPGSEIVLTQSPATLSLSPGERATLSCRASQSVRSYLAWYQQKPGQAPRLLIYDASNRATGIPARFSGSGSGTDFTLTISSLEPEDFAVYYCQQRSNWPPTFGQGTKVEIKEPKSSDKTHTCPPCPAPPVAGPSVFLFPPKPKDTLMISRTPEVTCVVVDVKHEDPEVKFNWYVDGVEVHNAKTKPREEQYNSTYRVVSVLTVLHQDWLNGKEYKCKVSNKALPAPIEKTISKAKGQPREPQVYTLPPSREQMTKNQVKLTCLVKGFYPSDIAVEWESNGQPENNYKTTPPVLDSDGSFFLYSKLTVDKSRWQQGNVFSCSVMHEALHNHYTQKSLSLSPGK
light: NIVMTQSPSSLSASVGDRVTITCQASQDVGTAVAWYQQKPDQSPKLLIYWTSTRHTGVPDRFTGSGSGTDFTLTISSLQPEDIATYFCHQYNSYNTFGSGTKLEIKRTVAAPSVFIFPPSDEQLKSGTASVVCLLNNFYPREAKVQWKVDNALQSGNSQESVTEQDSKDSTYSLSSTLTLSKADYEKHKVYACEVTHQGLSSPVTKSFNRGEC
notes: also called prototype anti-TGFßRII×anti-CD5 bsAb having CD5-targeting arm based on clone 5D7; αTGFßRII×αCD5
binding result [5]: binds

The remaining lines, values ahead:

binding result [6]: binds
B7: XENP37385 (bispecific antibody, human IgG1, kappa)
heavy: EVQLKESGAELVRPGGSVKISCKGSGYTFTNFAIHWVKQSHIKTLEWIGLISTSSGDVSYNQKFKDKATMTVDKSSSTAYMELARLTSEDSAIYYCARHYGANNYFDYWGQGTLVTVSSASTKGPSVFPLAPSSKSTSGGTAALGCLVKDYFPEPVTVSWNSGALTSGVHTFPAVLQSSGLYSLSSVVTVPSSSLGTQTYICNVNHKPSDTKVDKKVEPKSCDKTHTCPPCPAPPVAGPSVFLFPPKPKDTLMISRTPEVTCVVVDVKHEDPEVKFNWYVDGVEVHNAKTKPREEEYNSTYRVVSVLTVLHQDWLNGKEYKCKVSNKALPAPIEKTISKAKGQPREPQVYTLPPSREEMTKNQVSLTCDVSGFYPSDIAVEWESDGQPENNYKTTPPVLDSDGSFFLYSKLTVDKSRWEQGDVFSCSVMHEALHNHYTQKSLSLSPGK
scFv-Fc: B6 scFv-Fc
light: EIVLTQSPTIMSASPGEQVTMTCRTNSSVSSSYLHWYQQKSGASPKLWIYGTSNLASGVPTRFSGSGSGTSYSLTISSVEAGDAATYFCQQYSGYPLTFGGGTKVEIKRTVAAPSVFIFPPSDEQLKSGTASVVCLLNNFYPREAKVQWKVDNALQSGNSQESVTEQDSKDSTYSLSSTLTLSKADYEKHKVYACEVTHQGLSSPVTKSFNRGEC

binding result [5]: binds
B8: XENP37388 (bispecific antibody, human IgG1, kappa)
heavy: QVTLKESGAELVRPGASVKLSCKASGYSFTSYWMNWVKQRPGQGLEWIGMIHPSDSETRLNQKFKDKATLTVDKSSSTAYMQLSSPTSEDSAVYYCARWGDHDDAMDFWGQGTMVTVSSASTKGPSVFPLAPSSKSTSGGTAALGCLVKDYFPEPVTVSWNSGALTSGVHTFPAVLQSSGLYSLSSVVTVPSSSLGTQTYICNVNHKPSDTKVDKKVEPKSCDKTHTCPPCPAPPVAGPSVFLFPPKPKDTLMISRTPEVTCVVVDVKHEDPEVKFNWYVDGVEVHNAKTKPREEEYNSTYRVVSVLTVLHQDWLNGKEYKCKVSNKALPAPIEKTISKAKGQPREPQVYTLPPSREEMTKNQVSLTCDVSGFYPSDIAVEWESDGQPENNYKTTPPVLDSDGSFFLYSKLTVDKSRWEQGDVFSCSVMHEALHNHYTQKSLSLSPGK
scFv-Fc: B6 scFv-Fc
light: DIVLTQSPASLSASVGESVTITCRPSENIYGYFAWYQQRQGKSPQLLVYNAKTLAEGVPSRFSGSGSGTHFSLKINSLQPEDFGTYYCQHHYGTPFTFGPGTKVDIKRTVAAPSVFIFPPSDEQLKSGTASVVCLLNNFYPREAKVQWKVDNALQSGNSQESVTEQDSKDSTYSLSSTLTLSKADYEKHKVYACEVTHQGLSSPVTKSFNRGEC
notes: also called anti-TGFßRII×anti-CD5 bsAb based on Cd5-B (by the order of the sentence)

binding result [2]: binds
B9: XENP28297 (antibody, human IgG1, kappa, V domains shown)
VH: QLQVQESGPGLVKPSETLSLTCTVSGGSISNSYFSWGWIRQPPGKGLEWIGSFYYGEKTYYNPSLKSRATISIDTSKSQFSLKLSSVTAADTAVYYCPRGPTVIRGVIDSWGQGTLVTVSS
VL: EIVLTQSPATLSLSPGERATLSCRASQSVRSYLAWYQQKPGQAPRLLIYDASNRATGIPARFSGSGSGTDFTLTISSLEPEDFAVYYCQQRSNWPPTFGQGTKVEIKR
modifications: The antibody was labeled with Alexa647 in the cell-binding assay. The dye position is not stated.
notes: also called bivalent anti-TGFßRII mAb based on TBRII-A; copies: 2 + 2
